{"source": "patent US20260234223A1", "about": "(LEYDEN LABORATORIES B V, published 2026)", "binders": {"B1": {"name": "COV30-14 (antibody, V domains shown)", "VH": "QVQLVQSGAEVKKPGASVKVSCQTSGYTFTSYYMHWVRQAPGQGLEWMGLITPSGDDTYYAQRFQGRVTMTRDTSTSPTYMELSSLTSEDTAVYYCAKMSRAGGFDVWGQGTLVTVSS", "VL": "EVVLTQSPGTLSLSPGERATLSCRASQSITGRYLAWYQQKPGQAPRLLMYGESSRVTGIPDRFSGGGSGTDFTLTISRLEPEDFAVYYCQHFASSPPTYTFGQGTKLEIR", "notes": "also called the antibody according to the invention; the antibody according to invention"}}, "key": {"MERS-CoV Spike antigen": {"molecular_target": "T1, MERS-CoV Spike antigen (MERS-CoV, UniProt K9N5Q8 18-1291)", "T1 sequence": "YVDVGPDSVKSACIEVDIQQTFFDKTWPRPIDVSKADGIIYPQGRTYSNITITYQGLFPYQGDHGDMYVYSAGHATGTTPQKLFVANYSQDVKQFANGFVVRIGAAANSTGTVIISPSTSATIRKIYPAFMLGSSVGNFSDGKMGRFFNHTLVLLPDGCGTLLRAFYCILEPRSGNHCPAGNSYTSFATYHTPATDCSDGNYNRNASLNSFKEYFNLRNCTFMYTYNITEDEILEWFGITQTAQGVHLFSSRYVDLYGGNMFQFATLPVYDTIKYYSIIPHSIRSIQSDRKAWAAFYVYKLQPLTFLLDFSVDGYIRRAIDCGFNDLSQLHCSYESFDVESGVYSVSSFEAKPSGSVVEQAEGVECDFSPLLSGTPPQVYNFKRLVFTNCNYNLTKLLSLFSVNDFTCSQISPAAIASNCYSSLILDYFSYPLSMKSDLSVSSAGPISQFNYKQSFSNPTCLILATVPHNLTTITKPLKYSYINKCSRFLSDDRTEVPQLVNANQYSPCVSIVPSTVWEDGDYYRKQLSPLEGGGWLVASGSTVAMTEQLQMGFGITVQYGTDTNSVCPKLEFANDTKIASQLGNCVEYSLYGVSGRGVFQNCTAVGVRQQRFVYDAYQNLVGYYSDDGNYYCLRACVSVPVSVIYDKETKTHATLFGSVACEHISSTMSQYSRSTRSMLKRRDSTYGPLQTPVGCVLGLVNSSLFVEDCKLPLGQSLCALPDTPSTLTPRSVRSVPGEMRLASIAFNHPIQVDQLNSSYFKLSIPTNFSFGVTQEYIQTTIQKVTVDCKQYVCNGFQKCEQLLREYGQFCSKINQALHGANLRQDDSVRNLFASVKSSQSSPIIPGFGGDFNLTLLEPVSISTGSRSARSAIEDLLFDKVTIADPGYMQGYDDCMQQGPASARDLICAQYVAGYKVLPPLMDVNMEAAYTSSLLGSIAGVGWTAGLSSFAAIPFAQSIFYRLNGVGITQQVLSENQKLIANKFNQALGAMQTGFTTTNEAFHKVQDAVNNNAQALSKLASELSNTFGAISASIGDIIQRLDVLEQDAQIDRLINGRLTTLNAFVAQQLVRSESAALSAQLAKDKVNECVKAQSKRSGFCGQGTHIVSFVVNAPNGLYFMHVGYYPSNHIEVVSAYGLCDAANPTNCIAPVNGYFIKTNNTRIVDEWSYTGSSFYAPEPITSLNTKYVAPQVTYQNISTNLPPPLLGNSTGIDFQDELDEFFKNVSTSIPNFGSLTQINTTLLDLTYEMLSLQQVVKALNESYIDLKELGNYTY", "assay": "cell-based or functional assay"}, "[1]": {"molecular_target": "T2, SARS-CoV-2 Spike antigen (Wuhan, wildtype) (SARS-CoV-2 (Wuhan), UniProt P0DTC2 14-1208)", "assay": "cell-based or functional assay"}, "SARS-CoV-1 Spike antigen [2]": {"molecular_target": "T3, SARS-CoV-1 Spike antigen (SARS-CoV-1, UniProt P59594 14-1190)", "assay": "cell-based or functional assay"}, "hCoV-229E Spike antigen [3]": {"molecular_target": "T4, hCoV-229E Spike antigen (human coronavirus 229E, UniProt P15423 16-1110)", "T4 sequence": "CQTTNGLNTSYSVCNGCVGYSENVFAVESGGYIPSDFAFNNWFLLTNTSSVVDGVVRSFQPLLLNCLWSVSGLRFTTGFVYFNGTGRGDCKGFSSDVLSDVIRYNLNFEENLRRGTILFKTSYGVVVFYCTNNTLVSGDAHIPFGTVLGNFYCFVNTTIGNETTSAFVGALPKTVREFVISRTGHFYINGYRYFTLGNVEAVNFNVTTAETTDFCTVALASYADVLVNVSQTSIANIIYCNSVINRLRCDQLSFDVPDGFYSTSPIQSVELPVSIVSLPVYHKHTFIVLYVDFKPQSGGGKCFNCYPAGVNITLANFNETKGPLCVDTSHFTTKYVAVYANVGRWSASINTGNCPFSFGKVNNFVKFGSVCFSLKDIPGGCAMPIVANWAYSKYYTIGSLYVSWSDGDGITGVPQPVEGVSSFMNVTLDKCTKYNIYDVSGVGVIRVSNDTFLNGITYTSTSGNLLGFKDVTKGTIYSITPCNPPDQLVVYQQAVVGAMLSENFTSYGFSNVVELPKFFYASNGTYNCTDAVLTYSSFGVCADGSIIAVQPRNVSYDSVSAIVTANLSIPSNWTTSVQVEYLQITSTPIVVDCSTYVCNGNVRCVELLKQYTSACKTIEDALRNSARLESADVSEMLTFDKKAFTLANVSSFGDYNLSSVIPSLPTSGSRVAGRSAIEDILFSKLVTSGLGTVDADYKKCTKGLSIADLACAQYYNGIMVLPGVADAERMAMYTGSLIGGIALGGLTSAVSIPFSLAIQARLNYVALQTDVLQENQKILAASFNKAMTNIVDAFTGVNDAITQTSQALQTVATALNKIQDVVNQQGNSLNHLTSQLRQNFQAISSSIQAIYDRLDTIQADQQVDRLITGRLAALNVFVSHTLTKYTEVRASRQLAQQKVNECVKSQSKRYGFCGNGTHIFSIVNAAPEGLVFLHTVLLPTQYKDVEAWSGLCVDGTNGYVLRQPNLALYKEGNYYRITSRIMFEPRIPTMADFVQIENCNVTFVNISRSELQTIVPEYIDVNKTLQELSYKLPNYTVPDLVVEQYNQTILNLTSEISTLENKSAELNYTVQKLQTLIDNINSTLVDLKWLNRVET", "assay": "cell-based or functional assay"}, "[4]": {"molecular_target": "T2, SARS-CoV-2 Spike antigen (Wuhan, …)", "assay": "cell-based or functional assay", "remark": "listed apart in the source"}, "[5]": {"molecular_target": "T5, human coronavirus NL63 Spike antigen (human coronavirus NL63, UniProt Q6Q1S2 19-1291)", "T5 sequence": "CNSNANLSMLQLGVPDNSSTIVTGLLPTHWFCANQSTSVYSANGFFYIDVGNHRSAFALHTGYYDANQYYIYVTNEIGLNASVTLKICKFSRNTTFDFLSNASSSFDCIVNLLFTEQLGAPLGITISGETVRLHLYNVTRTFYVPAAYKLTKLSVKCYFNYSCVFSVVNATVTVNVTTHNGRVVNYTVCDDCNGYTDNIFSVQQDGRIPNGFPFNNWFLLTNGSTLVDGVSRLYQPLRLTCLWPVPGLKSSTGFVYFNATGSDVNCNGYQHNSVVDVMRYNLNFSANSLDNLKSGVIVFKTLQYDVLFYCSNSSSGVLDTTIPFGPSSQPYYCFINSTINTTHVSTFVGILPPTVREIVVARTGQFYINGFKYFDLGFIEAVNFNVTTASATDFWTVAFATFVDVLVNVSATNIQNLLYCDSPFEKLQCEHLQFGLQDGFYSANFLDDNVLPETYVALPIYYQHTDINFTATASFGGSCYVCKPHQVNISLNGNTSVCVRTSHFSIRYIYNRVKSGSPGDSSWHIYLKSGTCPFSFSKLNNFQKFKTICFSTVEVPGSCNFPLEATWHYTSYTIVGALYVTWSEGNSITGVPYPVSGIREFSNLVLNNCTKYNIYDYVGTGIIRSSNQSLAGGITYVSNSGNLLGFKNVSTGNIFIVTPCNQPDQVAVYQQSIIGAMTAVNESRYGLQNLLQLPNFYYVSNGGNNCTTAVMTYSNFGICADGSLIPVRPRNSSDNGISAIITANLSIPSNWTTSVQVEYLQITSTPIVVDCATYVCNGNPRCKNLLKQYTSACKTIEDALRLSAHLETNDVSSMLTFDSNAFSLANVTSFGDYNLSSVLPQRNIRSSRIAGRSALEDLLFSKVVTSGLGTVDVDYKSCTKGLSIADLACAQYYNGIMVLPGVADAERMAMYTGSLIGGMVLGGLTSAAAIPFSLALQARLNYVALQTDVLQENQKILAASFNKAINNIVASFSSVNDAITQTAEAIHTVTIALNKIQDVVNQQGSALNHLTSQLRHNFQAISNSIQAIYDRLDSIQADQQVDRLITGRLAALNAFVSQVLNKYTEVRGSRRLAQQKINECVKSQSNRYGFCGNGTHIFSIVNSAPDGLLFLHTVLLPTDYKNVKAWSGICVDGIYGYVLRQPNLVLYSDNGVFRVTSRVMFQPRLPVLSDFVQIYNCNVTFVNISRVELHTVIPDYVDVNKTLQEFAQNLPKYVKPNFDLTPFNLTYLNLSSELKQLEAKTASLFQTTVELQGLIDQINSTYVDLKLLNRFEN", "assay": "cell-based or functional assay"}, "SARS-CoV-1 Spike antigen [6]": {"molecular_target": "T3, SARS-CoV-1 Spike antigen", "assay": "cell-based or functional assay", "remark": "listed apart in the source"}, "[7]": {"molecular_target": "T5, human coronavirus NL63 Spike antigen", "assay": "ELISA on coated spike antigen"}, "hCoV-229E Spike antigen [8]": {"molecular_target": "T4, hCoV-229E Spike antigen", "assay": "MSD multiplex binding assay, Coronavirus Panel 3"}}}
{"binder": "B1", "values": [{"measurement": "Live virus neutralization IC50", "setting": "MERS-CoV Spike antigen", "value": 3.68, "unit": "µg/mL"}, {"measurement": "Live virus neutralization IC50", "setting": "[1]", "value": 25.4, "unit": "µg/mL"}, {"measurement": "Live virus neutralization IC50", "setting": "SARS-CoV-1 Spike antigen [2]", "value": 4.95, "unit": "µg/mL"}, {"measurement": "Pseudovirion neutralization IC50", "setting": "hCoV-229E Spike antigen [3]", "value": "> 250", "unit": "µg/mL"}, {"measurement": "Pseudovirion neutralization IC50 (geometric mean)", "setting": "[4]", "value": 0.211, "unit": "µg/mL"}, {"measurement": "Pseudovirion neutralization IC50", "setting": "[5]", "value": "> 250", "unit": "µg/mL"}, {"measurement": "Pseudovirion neutralization IC50 (geometric mean)", "setting": "SARS-CoV-1 Spike antigen [6]", "value": 5.89, "unit": "µg/mL"}, {"measurement": "binding result", "setting": "[7]", "value": "no binding (tested: range tested 10.0-0.000002 nM)"}, {"measurement": "binding result", "setting": "hCoV-229E Spike antigen [8]", "value": "no binding (tested: dilution range starting from 555 ng/ml)"}]}
